From patent US20080249006A1, “Pharmaceutical Preparation for the Treatment of Shock” (FIBREX MEDICAL RESEARCH & DEVELOPMENT GESMBH, priority 2004, published 2008)

Key:
VE-cadherin = target: T1, VE-cadherin (Homo sapiens, UniProt P33151); assay: Competition ELISA: inhibition of FLAG-tagged Bbeta15-42 binding to VE-cadherin; details: FLAG-tagged Bbeta15-42 12 μM
T1 construct: Fc (immunoglobulin Fc fusion partner); purchased R&D Systems, Minneapolis
Excerpt: (§1) We have developed a modified ELISA working with the same principles described by others, but the purpose of the herein described ELISA is not to quantify fibrin degradation products, but to search for proteins, peptides or compounds which interfere with the binding of the Bbeta15-42 sequence and the VE-cadherin. […] Into this system one can introduce any other additional substance and measure if this substance inhibits VE-cadherin/Bbeta15-42 binding.
(§2) In detail, 96 well protein immobilizer plates (Exiqon, Vedbaek, D K) were coated with recombinant human VE-cadherin FC fusion protein (8 nM/ml; R&D Systems, Minneapolis) in PBS and were left overnight at 4° C. Plates were then washed and incubated with peptide Bβ15-42 ([…]) tagged with a FLAG-sequence (DYKDDDDK) at the C-terminus of the peptide or with a FLAG-tagged random peptide ([…]) at a concentration of 0-80 μMol. After washing, bound FLAG-tagged peptide was detected by incubation with a peroxidase-labelled anti-FLAG antibody (Sigma, St. Louis, USA) and chromogenic substrate. Optical density was determined by an ELISA plate reader set at a wavelength of 450 nm. Data represent the mean of three independent experiments, each performed in triplicates.
In a next step, we analyzed whether this ELISA can be used to screen for other peptides/compounds to compete with the binding of the Bβ15-42 sequence to VE-cadherin.
VE-cadherin was coated to the plastic surface at a concentration of 8 nM. Then indicated peptides were added at concentrations of 200 μM, NDSK or NDSK-II were added at indicated concentrations. Detection of binding of the FLAG-tagged Bbeta15-42 (12 μM) was performed as described above.

[1] = target: T2, recombinant human VE-cadherin FC fusion protein (Homo sapiens, UniProt P33151); assay: ELISA: binding of FLAG-tagged peptide to coated VE-cadherin
T2 construct: Fc (immunoglobulin Fc fusion partner); purchased R&D Systems, Minneapolis
Excerpt: as §1, §2

[2] = blocking reagent 200 μM, VE-cadherin 8 nM

T2 sequence (P33151 with tags, fused parts or gaps limits assumed): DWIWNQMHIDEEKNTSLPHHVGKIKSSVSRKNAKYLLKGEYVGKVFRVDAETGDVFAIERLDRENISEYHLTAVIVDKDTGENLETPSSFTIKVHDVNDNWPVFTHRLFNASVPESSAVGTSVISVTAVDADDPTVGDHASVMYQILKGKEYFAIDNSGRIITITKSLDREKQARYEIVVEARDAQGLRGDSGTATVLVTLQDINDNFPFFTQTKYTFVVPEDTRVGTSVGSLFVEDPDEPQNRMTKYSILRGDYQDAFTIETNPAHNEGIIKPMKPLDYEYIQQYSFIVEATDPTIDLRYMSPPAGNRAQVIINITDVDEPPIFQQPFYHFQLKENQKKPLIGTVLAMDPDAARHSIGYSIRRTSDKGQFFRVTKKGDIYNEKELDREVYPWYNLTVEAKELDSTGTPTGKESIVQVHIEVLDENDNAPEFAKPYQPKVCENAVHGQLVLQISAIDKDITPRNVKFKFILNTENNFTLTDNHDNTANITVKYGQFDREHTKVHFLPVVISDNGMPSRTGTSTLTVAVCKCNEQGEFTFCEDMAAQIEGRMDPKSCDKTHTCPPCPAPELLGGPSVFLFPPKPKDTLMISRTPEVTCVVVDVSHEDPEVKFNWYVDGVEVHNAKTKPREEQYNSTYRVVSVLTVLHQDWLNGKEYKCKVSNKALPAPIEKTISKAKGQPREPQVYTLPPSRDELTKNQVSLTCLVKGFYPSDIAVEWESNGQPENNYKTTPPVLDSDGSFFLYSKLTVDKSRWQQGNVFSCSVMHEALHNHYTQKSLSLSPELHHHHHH
T1 sequence (P33151 with tags, fused parts or gaps limits assumed): as above

| Substance | % inhibition of 15-42FLAG-binding to VE-cadherin mean ± SD (VE-cadherin; blocking reagent 12 μM) | % inhibition of 15-42FLAG-binding to VE-cadherin mean ± SD (VE-cadherin; [2]) | other results |
| --- | --- | --- | --- |
| peptide 15-30 (16mer): shorter peptide, amino acids 15-30 of the fibrin Bβ chain | 6 ± 3% | 61 ± 13% | – |
| peptide 16-42 (27mer): shorter peptide, amino acids 16-42 of the fibrin Bβ chain | 5 ± 2% | 55 ± 13% | – |
| 15-42 FLAG: peptide Bβ15-42 (GHRPLDKKREEAPSLRPAPPPISGGGYR) tagged with a FLAG-sequence (DYKDDDDK) at the C-terminus (GHRPLDKKREEAPSLRPAPPPISGGGYRDYKDDDDK) | – | – | Binding to VE-cadherin, optical density at 450 nm (mean) ([1]; FLAG-tagged peptide 0 μM): 0; Binding to VE-cadherin, optical density at 450 nm (mean) ([1]; FLAG-tagged peptide 0.23 μM): 0.01; Binding to VE-cadherin, optical density at 450 nm (mean) ([1]; FLAG-tagged peptide 0.7 μM): 0.02; Binding to VE-cadherin, optical density at 450 nm (mean) ([1]; FLAG-tagged peptide 2.3 μM): 0.08; Binding to VE-cadherin, optical density at 450 nm (mean) ([1]; FLAG-tagged peptide 7 μM): 0.33; Binding to VE-cadherin, optical density at 450 nm (mean) ([1]; FLAG-tagged peptide 14 μM): 0.92; Binding to VE-cadherin, optical density at 450 nm (mean) ([1]; FLAG-tagged peptide 21 μM): 1.3; Binding to VE-cadherin, optical density at 450 nm (mean) ([1]; FLAG-tagged peptide 35 μM): 1.5; Binding to VE-cadherin, optical density at 450 nm (mean) ([1]; FLAG-tagged peptide 46 μM): 1.93; Binding to VE-cadherin, optical density at 450 nm (mean) ([1]; FLAG-tagged peptide 70 μM): 2.1 |
| peptide 15-34 (20mer): shorter peptide, amino acids 15-34 of the fibrin Bβ chain | 7 ± 1% | 67 ± 17% | – |
| peptide 15-26 (12mer): shorter peptide, amino acids 15-26 of the fibrin Bβ chain | 6 ± 1% | 64 ± 10% | – |
| peptide 15-37 (24mer): shorter peptide, amino acids 15-37 of the fibrin Bβ chain | 7 ± 2% | 17 ± 19% | – |
| peptide 15-18 (4mer): shorter peptide, amino acids 15-18 of the fibrin Bβ chain | 7 ± 2% | 65 ± 12% | – |
